Earlier results, collected in article PMC4712107.
Read-outs that look alike come from different tables or passages of the source.

How the values were obtained:
CRF-BP (Homo sapiens) [1] = molecular target: CRF-BP (Homo sapiens) (UniProt P24387)
CRF-BP (Homo sapiens) [2] = molecular target: CRF-BP (Homo sapiens) (UniProt P24387); remark: listed apart in the source

UniProt P24387, sequence (P24387 25-322): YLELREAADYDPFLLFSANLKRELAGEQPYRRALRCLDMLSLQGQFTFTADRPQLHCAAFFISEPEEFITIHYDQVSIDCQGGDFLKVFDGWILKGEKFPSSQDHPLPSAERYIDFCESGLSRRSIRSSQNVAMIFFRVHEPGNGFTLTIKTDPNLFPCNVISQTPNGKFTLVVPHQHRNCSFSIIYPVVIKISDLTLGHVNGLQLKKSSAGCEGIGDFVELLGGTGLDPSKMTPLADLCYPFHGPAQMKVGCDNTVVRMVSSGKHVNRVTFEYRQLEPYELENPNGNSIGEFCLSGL

Row | Kd (CRF-BP (Homo sapiens) [1]) [nM] | Kd (CRF-BP (Homo sapiens) [2]) [nM] | Substance
1 | < 1 |  | CRF (from UniProt P06850)
2 |  | < 1 | Urocortin 1 (from UniProt P55089)
